{"source": "patent US5567302A", "about": "“Electrochemical system for rapid detection of biochemical agents that catalyze a redox potential change” (priority 1995, dated 1996)", "system": "OC[C@H]1O[C@@H](Oc2c[nH]c3ccc(Br)c(Cl)c23)[C@H](O)[C@@H](O)[C@H]1O", "assay": "purified protein, by the assay type", "conditions": "other: β-D-galactosidase substrate; stated when explaining why the standard curve levels off at high enzyme amounts"}
{"substance": "biotinylated β-D-galactosidase (Escherichia coli K-12)", "values": [{"measurement": "Km", "result": 3000, "unit": "µM"}]}
